From patent publication US20250224393A1

Target: Recombinantly expressed GPIb protein fragment of a gain-of-function mutant of the human GPIb protein (human) (UniProt P07359)
Assay: latex agglutination VWF activity assay; HBR total protein up to 0.02 mg/mL in solution, comparison control

Sequence of UniProt P07359 (P07359 other isoform, or with tags, fused parts or gaps mutant): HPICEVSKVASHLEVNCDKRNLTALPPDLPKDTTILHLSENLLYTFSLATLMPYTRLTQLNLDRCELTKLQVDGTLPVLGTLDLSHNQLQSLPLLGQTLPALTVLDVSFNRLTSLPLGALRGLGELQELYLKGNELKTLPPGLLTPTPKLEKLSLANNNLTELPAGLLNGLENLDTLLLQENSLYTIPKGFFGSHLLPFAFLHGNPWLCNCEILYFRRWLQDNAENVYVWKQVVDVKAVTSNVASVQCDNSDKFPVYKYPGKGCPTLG

- reduction of the VWF activity measured: < 2.6%
Substance: HBR-1 reagent (Heterophilic Blocking Reagent 1, Scantibodies Laboratory, Inc.) containing a mixture of mouse immunoglobulins
